Patent US20230406885A1, “CYCLIC PEPTIDES FOR TRAPPING INTERLEUKIN-1 BETA” (MERCK SHARP & DOHME LLC, priority 2022, published 2023)
*1 amine or outer side, *2 acyl side, *3 side chain or, on linkers, in order; H or OH if unused. [ ]: non-standard residue; d: D form. 3AzaPhe4AcPip = (S)-3-(6-(4-acetylpiperazin-1-yl)pyridin-3-yl)-2-aminopropanoic acid, CC(=O)N1CCN(c2ccc(C[C@H](N[*:1])C(=O)[*:2])cn2)CC1; Pro(trans-4-NH2) = O=C([C@@H]1C[C@@H](N[*:3])CN1[*:1])[*:2]; Bip(4'-COOH) = N[C@@H](Cc1ccc(-c2ccc(C(=O)O)cc2)cc1)C(=O)O; 1Nal(3S-Me) = C[C@@H](c1cccc2ccccc12)[C@H](N)C(=O)O; Phe(4-COOH) = N[C@@H](Cc1ccc(C(=O)O)cc1)C(=O)O; h3Pal(5-CN) = N#Cc1cncc(CC[C@H](N)C(=O)O)c1; 1Nal = N[C@@H](Cc1cccc2ccccc12)C(=O)O; Ala(4-THP) = N[C@@H](CC1CCOCC1)C(=O)O; hTyr = N[C@@H](CCc1ccc(O)cc1)C(=O)O; 4Pal = N[C@@H](Cc1ccncc1)C(=O)O; Orn = NCCC[C@H](N)C(=O)O; dNMeA = CN[C@H](C)C(=O)O; Dab = NCC[C@H](N)C(=O)O; Dap = NC[C@H](N)C(=O)O; Aib = CC(C)(N)C(=O)O

B1: SEQ ID NO: 25 (peptide)
peptide: cyclo([Bip(4'-COOH)]W[Phe(4-COOH)]G[Pro(trans-4-NH2)][1Nal(3S-Me)]D[dNMeA]G[Bip(4'-COOH)]KL[dA][hTyr])
SMILES: CC(C)C[C@@H]1NC(=O)[C@H](CCCCN)NC(=O)[C@H](Cc2ccc(-c3ccc(C(=O)O)cc3)cc2)NC(=O)CNC(=O)[C@@H](C)N(C)C(=O)[C@H](CC(=O)O)NC(=O)[C@H]([C@@H](C)c2cccc3ccccc23)NC(=O)[C@@H]2C[C@@H](N)CN2C(=O)CNC(=O)[C@H](Cc2ccc(C(=O)O)cc2)NC(=O)[C@H](Cc2c[nH]c3ccccc23)NC(=O)[C@H](Cc2ccc(-c3ccc(C(=O)O)cc3)cc2)NC(=O)[C@H](CCc2ccc(O)cc2)NC(=O)[C@@H](C)NC1=O
B2: SEQ ID NO: 17 (peptide)
peptide: cyclo([Bip(4'-COOH)]W[Phe(4-COOH)]G[Pro(trans-4-NH2)][1Nal(3S-Me)]D[dNMeA]G[Bip(4'-COOH)][1Nal][Dap][Aib]G)
SMILES: C[C@@H]1C(=O)NCC(=O)N[C@@H](Cc2ccc(-c3ccc(C(=O)O)cc3)cc2)C(=O)N[C@@H](Cc2cccc3ccccc23)C(=O)N[C@@H](CN)C(=O)NC(C)(C)C(=O)NCC(=O)N[C@@H](Cc2ccc(-c3ccc(C(=O)O)cc3)cc2)C(=O)N[C@@H](Cc2c[nH]c3ccccc23)C(=O)N[C@@H](Cc2ccc(C(=O)O)cc2)C(=O)NCC(=O)N2C[C@H](N)C[C@H]2C(=O)N[C@@H]([C@@H](C)c2cccc3ccccc23)C(=O)N[C@@H](CC(=O)O)C(=O)N1C
B3: SEQ ID NO: 16 (peptide)
peptide: cyclo([Bip(4'-COOH)]W[Phe(4-COOH)]G[Pro(trans-4-NH2)][1Nal(3S-Me)]D[dNMeA]G[Bip(4'-COOH)][1Nal][Dab][Aib][hTyr])
SMILES: C[C@@H]1C(=O)NCC(=O)N[C@@H](Cc2ccc(-c3ccc(C(=O)O)cc3)cc2)C(=O)N[C@@H](Cc2cccc3ccccc23)C(=O)N[C@@H](CCN)C(=O)NC(C)(C)C(=O)N[C@@H](CCc2ccc(O)cc2)C(=O)N[C@@H](Cc2ccc(-c3ccc(C(=O)O)cc3)cc2)C(=O)N[C@@H](Cc2c[nH]c3ccccc23)C(=O)N[C@@H](Cc2ccc(C(=O)O)cc2)C(=O)NCC(=O)N2C[C@H](N)C[C@H]2C(=O)N[C@@H]([C@@H](C)c2cccc3ccccc23)C(=O)N[C@@H](CC(=O)O)C(=O)N1C
B4: SEQ ID NO: 18 (peptide)
peptide: cyclo([Bip(4'-COOH)]W[Phe(4-COOH)]G[Pro(trans-4-NH2)][1Nal(3S-Me)]D[dNMeA]G[Bip(4'-COOH)][1Nal][Dap][Aib][h3Pal(5-CN)])
SMILES: C[C@@H]1C(=O)NCC(=O)N[C@@H](Cc2ccc(-c3ccc(C(=O)O)cc3)cc2)C(=O)N[C@@H](Cc2cccc3ccccc23)C(=O)N[C@@H](CN)C(=O)NC(C)(C)C(=O)N[C@@H](CCc2cncc(C#N)c2)C(=O)N[C@@H](Cc2ccc(-c3ccc(C(=O)O)cc3)cc2)C(=O)N[C@@H](Cc2c[nH]c3ccccc23)C(=O)N[C@@H](Cc2ccc(C(=O)O)cc2)C(=O)NCC(=O)N2C[C@H](N)C[C@H]2C(=O)N[C@@H]([C@@H](C)c2cccc3ccccc23)C(=O)N[C@@H](CC(=O)O)C(=O)N1C
B5: SEQ ID NO: 26 (peptide)
peptide: cyclo([Bip(4'-COOH)]W[Phe(4-COOH)]G[Pro(trans-4-NH2)][1Nal(3S-Me)]D[dNMeA]G[Bip(4'-COOH)]KL[dS][hTyr])
SMILES: CC(C)C[C@@H]1NC(=O)[C@H](CCCCN)NC(=O)[C@H](Cc2ccc(-c3ccc(C(=O)O)cc3)cc2)NC(=O)CNC(=O)[C@@H](C)N(C)C(=O)[C@H](CC(=O)O)NC(=O)[C@H]([C@@H](C)c2cccc3ccccc23)NC(=O)[C@@H]2C[C@@H](N)CN2C(=O)CNC(=O)[C@H](Cc2ccc(C(=O)O)cc2)NC(=O)[C@H](Cc2c[nH]c3ccccc23)NC(=O)[C@H](Cc2ccc(-c3ccc(C(=O)O)cc3)cc2)NC(=O)[C@H](CCc2ccc(O)cc2)NC(=O)[C@@H](CO)NC1=O
B6: SEQ ID NO: 24 (peptide)
peptide: cyclo([Bip(4'-COOH)]W[Phe(4-COOH)]G[Pro(trans-4-NH2)][1Nal(3S-Me)]D[dNMeA]G[Bip(4'-COOH)][Ala(4-THP)][Dap][dA][hTyr])
SMILES: C[C@@H]1C(=O)NCC(=O)N[C@@H](Cc2ccc(-c3ccc(C(=O)O)cc3)cc2)C(=O)N[C@@H](CC2CCOCC2)C(=O)N[C@@H](CN)C(=O)N[C@H](C)C(=O)N[C@@H](CCc2ccc(O)cc2)C(=O)N[C@@H](Cc2ccc(-c3ccc(C(=O)O)cc3)cc2)C(=O)N[C@@H](Cc2c[nH]c3ccccc23)C(=O)N[C@@H](Cc2ccc(C(=O)O)cc2)C(=O)NCC(=O)N2C[C@H](N)C[C@H]2C(=O)N[C@@H]([C@@H](C)c2cccc3ccccc23)C(=O)N[C@@H](CC(=O)O)C(=O)N1C
B7: SEQ ID NO: 2 (peptide)
peptide: cyclo([3AzaPhe4AcPip]W[Phe(4-COOH)]G[Pro(trans-4-NH2)][1Nal(3S-Me)]D[dNMeA]G[Bip(4'-COOH)]KL[dA][h3Pal(5-CN)])
SMILES: CC(=O)N1CCN(c2ccc(C[C@@H]3NC(=O)[C@H](CCc4cncc(C#N)c4)NC(=O)[C@@H](C)NC(=O)[C@H](CC(C)C)NC(=O)[C@H](CCCCN)NC(=O)[C@H](Cc4ccc(-c5ccc(C(=O)O)cc5)cc4)NC(=O)CNC(=O)[C@@H](C)N(C)C(=O)[C@H](CC(=O)O)NC(=O)[C@H]([C@@H](C)c4cccc5ccccc45)NC(=O)[C@@H]4C[C@@H](N)CN4C(=O)CNC(=O)[C@H](Cc4ccc(C(=O)O)cc4)NC(=O)[C@H](Cc4c[nH]c5ccccc45)NC3=O)cn2)CC1
B8: SEQ ID NO: 23 (peptide)
peptide: cyclo([Bip(4'-COOH)]W[Phe(4-COOH)]G[Pro(trans-4-NH2)][1Nal(3S-Me)]D[dNMeA]G[Bip(4'-COOH)][Ala(4-THP)][Dap][dA][h3Pal(5-CN)])
SMILES: C[C@@H]1C(=O)NCC(=O)N[C@@H](Cc2ccc(-c3ccc(C(=O)O)cc3)cc2)C(=O)N[C@@H](CC2CCOCC2)C(=O)N[C@@H](CN)C(=O)N[C@H](C)C(=O)N[C@@H](CCc2cncc(C#N)c2)C(=O)N[C@@H](Cc2ccc(-c3ccc(C(=O)O)cc3)cc2)C(=O)N[C@@H](Cc2c[nH]c3ccccc23)C(=O)N[C@@H](Cc2ccc(C(=O)O)cc2)C(=O)NCC(=O)N2C[C@H](N)C[C@H]2C(=O)N[C@@H]([C@@H](C)c2cccc3ccccc23)C(=O)N[C@@H](CC(=O)O)C(=O)N1C
B9: SEQ ID NO: 19 (peptide)
peptide: cyclo([Bip(4'-COOH)]W[Phe(4-COOH)]G[Pro(trans-4-NH2)][1Nal(3S-Me)]D[dNMeA]G[Bip(4'-COOH)][1Nal]L[Aib]G)
SMILES: CC(C)C[C@@H]1NC(=O)[C@H](Cc2cccc3ccccc23)NC(=O)[C@H](Cc2ccc(-c3ccc(C(=O)O)cc3)cc2)NC(=O)CNC(=O)[C@@H](C)N(C)C(=O)[C@H](CC(=O)O)NC(=O)[C@H]([C@@H](C)c2cccc3ccccc23)NC(=O)[C@@H]2C[C@@H](N)CN2C(=O)CNC(=O)[C@H](Cc2ccc(C(=O)O)cc2)NC(=O)[C@H](Cc2c[nH]c3ccccc23)NC(=O)[C@H](Cc2ccc(-c3ccc(C(=O)O)cc3)cc2)NC(=O)CNC(=O)C(C)(C)NC1=O
B10: SEQ ID NO: 21 (peptide)
peptide: cyclo([Bip(4'-COOH)]W[Phe(4-COOH)]G[Pro(trans-4-NH2)][1Nal(3S-Me)]D[dNMeA]G[Bip(4'-COOH)][4Pal][Dap][dA][h3Pal(5-CN)])
SMILES: C[C@@H]1C(=O)NCC(=O)N[C@@H](Cc2ccc(-c3ccc(C(=O)O)cc3)cc2)C(=O)N[C@@H](Cc2ccncc2)C(=O)N[C@@H](CN)C(=O)N[C@H](C)C(=O)N[C@@H](CCc2cncc(C#N)c2)C(=O)N[C@@H](Cc2ccc(-c3ccc(C(=O)O)cc3)cc2)C(=O)N[C@@H](Cc2c[nH]c3ccccc23)C(=O)N[C@@H](Cc2ccc(C(=O)O)cc2)C(=O)NCC(=O)N2C[C@H](N)C[C@H]2C(=O)N[C@@H]([C@@H](C)c2cccc3ccccc23)C(=O)N[C@@H](CC(=O)O)C(=O)N1C
B11: SEQ ID NO: 20 (peptide)
peptide: cyclo([Bip(4'-COOH)]W[Phe(4-COOH)]G[Pro(trans-4-NH2)][1Nal(3S-Me)]D[dNMeA]G[Bip(4'-COOH)][1Nal][Orn][Aib]G)
SMILES: C[C@@H]1C(=O)NCC(=O)N[C@@H](Cc2ccc(-c3ccc(C(=O)O)cc3)cc2)C(=O)N[C@@H](Cc2cccc3ccccc23)C(=O)N[C@@H](CCCN)C(=O)NC(C)(C)C(=O)NCC(=O)N[C@@H](Cc2ccc(-c3ccc(C(=O)O)cc3)cc2)C(=O)N[C@@H](Cc2c[nH]c3ccccc23)C(=O)N[C@@H](Cc2ccc(C(=O)O)cc2)C(=O)NCC(=O)N2C[C@H](N)C[C@H]2C(=O)N[C@@H]([C@@H](C)c2cccc3ccccc23)C(=O)N[C@@H](CC(=O)O)C(=O)N1C
B12: SEQ ID NO: 22 (peptide)
peptide: cyclo([Bip(4'-COOH)]W[Phe(4-COOH)]G[Pro(trans-4-NH2)][1Nal(3S-Me)]D[dNMeA]G[Bip(4'-COOH)][4Pal][Dap][dA][hTyr])
SMILES: C[C@@H]1C(=O)NCC(=O)N[C@@H](Cc2ccc(-c3ccc(C(=O)O)cc3)cc2)C(=O)N[C@@H](Cc2ccncc2)C(=O)N[C@@H](CN)C(=O)N[C@H](C)C(=O)N[C@@H](CCc2ccc(O)cc2)C(=O)N[C@@H](Cc2ccc(-c3ccc(C(=O)O)cc3)cc2)C(=O)N[C@@H](Cc2c[nH]c3ccccc23)C(=O)N[C@@H](Cc2ccc(C(=O)O)cc2)C(=O)NCC(=O)N2C[C@H](N)C[C@H]2C(=O)N[C@@H]([C@@H](C)c2cccc3ccccc23)C(=O)N[C@@H](CC(=O)O)C(=O)N1C

Biological target: Recombinant human IL-1β (BioLegend 579404) (human, UniProt P01584 117-269)
Assay: cell-based or functional assay

Binder	MRC5 IC50 [nM]
B1	0.0542
B2	0.222
B3	0.175
B4	0.0885
B5	0.0688
B6	0.0291
B7	0.0217
B8	0.0112
B9	0.118
B10	0.0234
B11	0.44
B12	0.0325
